Among the data in article PMC6310021 (Science translational medicine, 2018) are Kd values, retold here.

Read-outs that look alike come from different tables or passages of the source.

Experiment [1] addresses T1, purified rat recombinant TG2 protein (transgelin-2) (rat, UniProt Q5XFX0 1-199). Briefly: SPR. In general terms: SPR reads the build-up and loss of mass on a sensor chip optically.
In experiment [2] the target is T1, purified rat recombinant TG2 protein …. Briefly: SPR. The source holds these as a separate data set.
For experiment [3], the target named is transgelin-2 (TG2) of rat airway smooth muscle cells (rat (endogenous in rat ASMCs), UniProt Q5XFX0 1-199). As to the kind of experiment: radioligand binding.
transgelin-2 (TG2) of rat airway smooth muscle cells, sequence (Q5XFX0 whole entry): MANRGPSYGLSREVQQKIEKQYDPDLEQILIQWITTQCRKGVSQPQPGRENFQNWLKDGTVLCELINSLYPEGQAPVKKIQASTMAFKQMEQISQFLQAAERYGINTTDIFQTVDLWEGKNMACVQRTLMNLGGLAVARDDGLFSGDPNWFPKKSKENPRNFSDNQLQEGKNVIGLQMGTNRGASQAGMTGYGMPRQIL

T1 sequence (Q5XFX0 whole entry): as above

B1: 6×His tag MT-2 recombinant protein (rat metallothionein-2) (natural protein)
chain: not shown
For the molecule B1, the Kd (in general, the constant that tells how readily two partners part at equilibrium) in experiment [1] was 442 nM; in experiment [2], 110 nM.

B2: 125I-labeled MT-2 (natural protein)
chain: not shown
modifications: 125I label (site not stated)
The molecule B2 yielded a Kd in experiment [3] of 33.4 nM.
